The numbers were not newly measured in paper PMC7532970, which cites them from elsewhere.

Like-named read-outs stand apart in the source and are kept apart here.

In data set [1] the target is CBP KIX (Homo sapiens) (UniProt Q92793).
The target is the same in data set [2]. This is another data set of the same source.
Data set [3] has the same target. The source holds these as a separate data set.

Chain of CBP KIX (Homo sapiens) (Q92793 584-669): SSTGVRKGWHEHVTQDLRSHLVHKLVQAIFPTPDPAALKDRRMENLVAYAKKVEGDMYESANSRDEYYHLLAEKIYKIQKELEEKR
Chain of c-myb (P10242 whole entry): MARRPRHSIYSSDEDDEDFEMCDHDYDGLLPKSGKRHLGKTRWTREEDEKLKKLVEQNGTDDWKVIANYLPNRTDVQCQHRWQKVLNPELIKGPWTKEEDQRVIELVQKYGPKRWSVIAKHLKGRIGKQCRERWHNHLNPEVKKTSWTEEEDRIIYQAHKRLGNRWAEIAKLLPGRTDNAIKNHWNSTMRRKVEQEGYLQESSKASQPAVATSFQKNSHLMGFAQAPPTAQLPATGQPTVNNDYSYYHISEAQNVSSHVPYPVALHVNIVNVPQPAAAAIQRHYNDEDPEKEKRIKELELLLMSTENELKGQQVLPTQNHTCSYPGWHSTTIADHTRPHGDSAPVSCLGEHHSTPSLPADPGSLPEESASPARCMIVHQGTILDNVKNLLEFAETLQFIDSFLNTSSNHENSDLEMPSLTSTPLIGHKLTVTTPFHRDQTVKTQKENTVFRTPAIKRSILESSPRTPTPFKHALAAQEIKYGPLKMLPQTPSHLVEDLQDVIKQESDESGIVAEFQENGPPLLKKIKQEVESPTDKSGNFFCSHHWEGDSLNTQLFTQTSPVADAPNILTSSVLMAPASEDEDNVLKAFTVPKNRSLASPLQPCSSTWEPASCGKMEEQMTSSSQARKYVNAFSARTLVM
Chain of CREB (P16220 whole entry): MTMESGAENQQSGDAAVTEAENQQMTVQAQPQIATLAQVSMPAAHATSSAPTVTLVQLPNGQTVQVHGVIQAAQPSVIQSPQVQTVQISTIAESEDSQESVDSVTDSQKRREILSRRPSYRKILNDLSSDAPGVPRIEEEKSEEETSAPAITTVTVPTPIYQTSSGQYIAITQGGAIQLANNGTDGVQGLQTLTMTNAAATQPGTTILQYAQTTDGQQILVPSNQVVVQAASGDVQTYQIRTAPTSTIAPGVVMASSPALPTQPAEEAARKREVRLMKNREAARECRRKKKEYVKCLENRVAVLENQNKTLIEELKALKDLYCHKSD

Consider CREB (from UniProt P16220), for which, in the data set with CBP KIX (Homo sapiens) [1], the equilibrium dissociation constant (Kd) is 700 nM.

c-myb (from UniProt P10242): in the data set with CBP KIX (Homo sapiens) [2], the equilibrium dissociation constant (Kd) is 15 µM.

As to p53 (from UniProt P04637), in the data set with CBP KIX (Homo sapiens) [3], the Kd was above 90 µM.
